Experimental data published in US20260176636, “APTAMER-DIRECT INHIBITOR CONJUGATES AND METHODS OF USING THE SAME” (Duke University, published 2026).

Experiments:
[1] = target: T1, thrombin (human alpha thrombin) (human, UniProt P00734;P00734 P00734:328-363,P00734:364-622); assay: inhibition; ±0.04; max inhibition 55%; KEA,I 1.8
factor Xa [2] = target: T2, factor Xa (human, UniProt P00742;P00742 P00742:41-179,P00742:235-488); assay: inhibition; fluorogenic substrate; free DAB IC50 >500 nM; conditions: tags: Haematologic Technologies Inc
T2 sequence (P00742 41-179, chain 1 of 2): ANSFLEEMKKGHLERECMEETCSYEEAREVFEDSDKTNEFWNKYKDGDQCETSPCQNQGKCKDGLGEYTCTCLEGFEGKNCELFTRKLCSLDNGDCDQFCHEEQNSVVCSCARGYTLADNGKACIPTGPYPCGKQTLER
T2 sequence (P00742 235-488, chain 2 of 2): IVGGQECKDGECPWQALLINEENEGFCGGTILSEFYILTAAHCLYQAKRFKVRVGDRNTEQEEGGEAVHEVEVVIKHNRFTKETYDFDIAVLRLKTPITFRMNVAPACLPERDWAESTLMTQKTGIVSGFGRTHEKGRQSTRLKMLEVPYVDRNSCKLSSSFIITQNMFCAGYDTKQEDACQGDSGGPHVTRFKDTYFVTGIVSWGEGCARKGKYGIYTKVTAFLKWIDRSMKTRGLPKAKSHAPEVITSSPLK

factor Xa [3] = target: T2, factor Xa; assay: inhibition; fluorogenic substrate; free APX IC50 5.5 nM; conditions: tags: Haematologic Technologies Inc
[4] = target: T1, thrombin (human alpha thrombin); assay: inhibition; fluorogenic peptidyl substrate; >99% max inhibition; 2 mM CaCl2, pH 7.5, 28 C
[5] = target: T1, thrombin (human alpha thrombin); assay: BLI; printed as 54 μM but kon 3.9e7 M-1s-1 and koff 2.1e-3 s-1 give 54 pM; biotinylated aptamer immobilised; 20 mM HEPES, 150 mM NaCl, 2 mM CaCl2, pH 7.5
[6] = target: T1, thrombin (human alpha thrombin); assay: BLI; kon down 15-fold, koff up 8-fold; absolute KD only in figure
[7] = target: T1, thrombin (human alpha thrombin); assay: BLI; no binding observed

B1: HD22-0A-DAB (ssDNA)
DNA: AGTCCGTGGTAGGGCAGGTTGGGGTGACT
modifications: 5' dabigatran-C6
Question: How did the IC50 [1] turn out when B1 was run?
Answer: 550 pM

B2: 11F7t-20A-DAB (ssRNA)
RNA: AAAAAAAAAAAAAAAAAAAAGAGAGCCCCAGCGAGAUAAUACUUGGCCCCGCUCUU
modifications: 5' dabigatran-C6; 2'-OMe A(20) linker; C and U of aptamer 2'-F (inferred); 3' T
Question: B2 was tested. Which IC50 (factor Xa [2]) did it give?
Answer: 180 pM

B3: 11F7t-20A-APX (ssRNA)
RNA: AAAAAAAAAAAAAAAAAAAAGAGAGCCCCAGCGAGAUAAUACUUGGCCCCGCUCUU
modifications: 5' apixaban-C6; 2'-OMe A(20) linker; C and U of aptamer 2'-F (inferred); 3' T
Question: With B3 as the binder, how does the IC50 (factor Xa [3]) read?
Answer: 170 pM

B4: HD22-7A-DAB (ssDNA)
DNA: AAAAAAAAGTCCGTGGTAGGGCAGGTTGGGGTGACT
modifications: 5' dabigatran-C6 amide; 5' A(7) dA linker
Question: For B4, which IC50 [4] is on record?
Answer: 100 pM

Question: What about the Kd [5] of the same binder?
Answer: 54 pM

B5: HD22-7A-NH2 (ssDNA)
DNA: AAAAAAAAGTCCGTGGTAGGGCAGGTTGGGGTGACT
modifications: 5' NH2-C6; 5' A(7) dA linker
Question: For B5, which Kd [6] is on record?
Answer: > 100 fold weaker than HD22-7A-DAB

B6: HD23-7A-NH2 (ssDNA)
DNA: AAAAAAAAGTCCGTAATAAAGCAGGTTAAAATGACT
modifications: 5' NH2-C6; 5' A(7) dA linker
Question: Does B6 bind [7]?
Answer: no binding
